Results as given in patent US8003345B2, “Antioxidant pharmaceutical compound, method for producing polypeptide and method of cure” (Institute of Cell Biophysics Russian Academy of Sciences, priority 2002, dated 2011).

Legend:
[1] = system: tracheal epithelium of rat after application of lipopolysaccharide; assay: Inflammation of rat tracheal epithelium caused by lipopolysaccharide (LPS); assay type: in vivo
[2] = Distribution of labeled peroxiredoxin in the organism after intravenous injection; assay type: in vivo, rat; conditions: 10 mg per animal, fluorescein-labeled
Method: For detecting the distribution of exogenous peroxiredoxin Prx VI in different tissues of the organism, a recombinant Prx V1hum labeled with fluorescein isocyanate was introduced into the rat's vein in an amount of 10 mg per animal. After definite periods of time the animals were sacrificed, the tissues of different organs were isolated, and luminescent analysis of the obtained samples was carried out. […] Thus, the method of introducing peroxiredoxin Prx VI by intravenous injection makes it possible to increase its content in almost all the tissues of the organism.

oxyhemoglobin = assay: Protection of oxyhemoglobin from the action of ionizing radiation; assay type: biochemical; conditions: about 50 μg/ml added before irradiation; 10 Gy; registered at 635 nm
Text: The antiradiation properties of Prx Vlhum are investigated both in vitro, by investigating a solution of hemoglobin, and in vivo on animals. Irradiation of a solution of hemoglobin (see Example 10) leads to essential changes in its structure (appearance of peaks at 635 nm and an increase of light scattering), this being indicative of conversion of oxyhemoglobin to methemoglobin, followed by the aggregation thereof.
For checking the possibility of protecting biological macromolecules from destruction caused by ionizing radiation with the aid of peroxiredoxin, we have investigated the characteristics of irradiated oxyhemoglobin in control and in the presence of peroxiredoxin. In control we used a solution of oxyhemoglobin (0.16 D at 540 nm) in 0.1 M of Tris-HCl (pH 7.0) which was irradiated in a GUBE apparatus with the total exposure dose of 10 Gy. As the radioprotector peroxiredoxin Prx V1hum was used in different concentrations (5-100 μg/ml) in the presence of 50 μM of dithiothreitol. The formation of oxidized forms of oxyhemoglobin (methemoglobin) was registered at 635 nm, and aggregation of methemoglobin was registered at 700 nm.

[3] = system: Wistar line rats subjected to gamma-irradiation; assay: Survival of rats after gamma-irradiation at a dose of 6 Gy; conditions: for number of rats survived: groups of 6 rats, intravenous before irradiation
Method: The radioprotector properties of peroxiredoxin in experiments in vivo are determined on an example of protecting animals from the action of gamma-irradiation in a sublethal dose with an intensity of 6 Gy.
Simultaneous irradiation of all animals (Wistar line rats weighing 200 grams) was carried out on a GUBE apparatus. The exposure dose was 6 Gy. The rats were divided into two groups. The first group of the animals (n=6) was used for control. The animals of the second group (n=6) 30-60 minutes before the irradiation were administered intravenously with 1 mg of peroxiredoxin Prx VI (1 ml of physiological solution at the peroxiredoxin concentration of 1 μg/ml). After the irradiation the animals were kept in common premises with sufficient amount of food, illumination and ventilation. For histological investigation animals with symptoms of worsened general conditions were chose from each group.

[4] = system: glutamine synthetase of E.coli; conditions: DTT/Fe3+/O2 oxidative system, 3 mM activator, 10 min at 37° C.; FIG. 3
Method: Comparison of the protector properties of recombinant full-size Prx Vlhum with the protector properties of natural rat Prx VIrat and with the protector properties of N-terminal ΔPrx V1hum in terms of protecting glutamine synthetase of E.coli from inactivation in a model oxidative system in vitro.
For determining the activity of different types of peroxiredoxins, their ability to protect glutamine synthetase from the DTT/Fe^+3/O2 oxidative system is measured. Glutamine synthetase is isolated from cells of the E.coli DH5α strain (Streicher S. L., Tyler B., 1980) and inactivated in the presence of a Fe^3+/O2 oxidative system and a peroxiredoxin activator—in the model oxidative system generating free radicals (Kim K. et al., 1988). […] The residual activity of glutamine synthetase is assessed by adding to the sample 200 μl of a reaction mixture which comprises: ADP, 0.4 mM; glutamine, 150 mM; K—AsO4, 10 mM; NH2OH, 20 mM; MnCl2, 0.4 mM; HEPES, 100 mM, pH 7.4. […] The protector properties of peroxiredoxin for protecting glutamine synthetase of E.coli from inactivation are determined as the ratio of the remaining activity of the enzyme after the inactivation in the presence of different concentrations of peroxiredoxin to the activity of non-inactivated glutamine synthetase.

skin cuts of rats = assay: Treating skin wounds (cuts) in rats; assay type: in vivo, rat; conditions: in 5 days; 0.5 mg/ml in 0.15 M NaCl, bandages changed once a day; against control; FIG. 10
Method: Rats were preliminarily narcotized by intraperitoneal introduction of hexenal (70 mg/kg). The animals were fixed on an operating table, and then 2-3 mm deep and 1 cm long cuts were made in the skin of both paws with the help of a razor blade. Control cuts were irrigated with physiological solution and a bactericidal plaster was applied; in the case of using peroxiredoxin, the wound was irrigated with a solution of recombinant Prx Vlhum or of its fragment ΔPrx Vlhum in 0.15 M NaCl in 0.5 mg/ml concentration, and a gauze bandage soaked with the same solutions was applied. The bandages were changed once a day.

[5] = system: tracheal epithelium of rat after application of lipopolysaccharide; assay: Inflammation of rat tracheal epithelium caused by lipopolysaccharide (LPS); assay type: in vivo; remark: listed apart in the source
Method: The therapeutic properties of peroxiredoxin Prx VI in treating the upper respiratory tract of rat immediately after the application of LPS were checked on a group of 4 Wistar line rats weighing 150-200 grams. The application of LPS was carried out in the following manner. The rats were anesthetized with hexenal, and 100 μl of a lipopolysaccharide solution were introduced through a catheter (the lipopolysaccharide concentration was from 10^−9 to 10^−11 mg/ml, the total number of the used animals was 20). After the application of the lipopolysaccharide, the rats were maintained for a definite period of time (1 hour, 3 hours, 6 hours, 7 hours, 9 hours), then narcotized with hexenal (300 mg/kg weight), and a sample of the tracheal epithelial tissue was isolated. For histochemical investigations the isolated sample was placed into a fixing solution containing 2% of formaldehyde and 0.5% of glutaraldehyde. The tissue was dehydrated by sequential routing through ethyl alcohol with increasing concentration (40-100%). The tissue was embedded into LR white resin. The resin was polymerized at room temperature. 0.5 em-thick sections were made on an LKB ultratome (Sweden), using glass knives. The sections were stained with a hematoxylin-eosine and analyzed under a light microscope.
For biochemical investigations we scraped the epithelium with a thin spatula, washed off the scrape with physiological solution and centrifugated at 10000 g for 15 min. The concentration of hydrogen peroxide was by the luminescence method. […] After LPS, application of a solution of a composition based on peroxiredoxin Prx VI into the trachea was carried out. Preliminarily the rats were narcotized by intraperitoneal administration of hexenal (70 mg/kg), the animals were fixed on an operating table, and under visual control with the aid of a binocular lens, through a catheter of 1 mm in diameter, peroxiredoxin solution (20 to 100 μl) was introduced into the trachea. The peroxiredoxin concentration was from 0.5 to 5.0 mg/ml. A 0.9% solution of NaCl was used as the solvent. The application of the solution of the composition was carried out once, immediately after the application of LPS. The application of pure solvent, solutions of serum albumin (10 mg/ml) and of glutathione (10 mM) were used as control.
Histological investigation of the trachea was carried out 24 hrs after the LPS application.

[6] = Cytotoxicity: number of live line L929 cells; assay type: cell-based, human; conditions: 0.1-10 μg/ml concentration; Trypan stain
Method: The cytotoxicity is determined from the influence of recombinant Prx V1hum or of natural rat Prx V1rat on the level of proliferation of line L929 human lymphoblastoma cells and of T-lymphocytes from the spleen of line NRRI rats stimulated with concavalin A.
Cells of two lines with the concentration of 10^4 cells/ml medium were cultivated in RPMI 1640 containing 5% of bovine fetal serum. The stimulation of T-lymphocytes was carried out with the 0.1 μg/ml concentration of concavalin. In the case of T-lymphocytes the proliferation level was determined from the inclusion of ^3H-thymidine. The number of live line L929 cells was determined in a 96-cell plate with the aid of a Trypan stain, followed by scanning on a Multiscan multichannel photometer (LKB, Sweden).

B1: Prx VIhum: recombinant full-size human peroxiredoxin Prx VI, 224 amino acids (SEQ ID NO: 1), produced in E.coli (protein)
chain: MPGGLLLGDVAPNFEANTTVGRIRFHDFLGDSWGILFSHPRDFTPVCTTELGRAAKLAPEFAKRNVKLIALSIDSVEDHLAWSKDINAYNCEEPTEKLPFPIIDDRNRELAILLGMLDPAEKDEKGMPVTARVVFVFGPDKKLKLSILYPATTGRNFDEILRVVISLQLTAEKRVATPVDWKDGDSVMVLPTIPEEEAKKLFPKGVFTKELPSGKKYLRYTPQP
Integrity of tracheal epithelium (according to histological data) ([1]; Treatment 24 hours later for 5 days and the integrity of epithelium 2 weeks later): 80%
restoration of the epithelial tissue ([1]; after 2 weeks, single application into the trachea immediately after LPS, FIG. 9): almost complete restoration of the epithelial tissue
distribution among organs ([2]; 15 minutes after intravenous injection, luminescent analysis): uniformly distributes among all the organs of the rat, including the brain
amount in bone marrow ([2]; after intravenous injection): small, compared with other tissues
concentration of oxidized forms of hemoglobin (oxyhemoglobin): lowered almost to zero
number of rats survived ([3]; 3 months, 6 Gy): 6
number of rats survived ([3]; 6 months, 6 Gy): 5
number of rats survived ([3]; 12 months, 6 Gy): 4
number of rats survived ([3]; 15 months, 6 Gy): 4
mortality of the rats ([3]; administered before irradiation, 6 Gy, versus control group): essentially lower than in the control group
general condition of the survived animals ([3]; one year after the irradiation, compared with the control group): differed markedly in favor of the second group
number of irradiation-associated malignant neoplasms ([3]; single injection into a vein 30 minutes before irradiation, 6 Gy): diminish the number of irradiation -associated malignant neoplasms
protector properties: antioxidant characteristics in protecting glutamine synthetase from inactivation [4]: close to the natural rat peroxiredoxin Prx VIrat
healing of the wound (skin cuts of rats): almost complete healing of the wound
preservation of the tracheal epithelium ([5]; 24 hrs after LPS, application immediately after the LPS, FIG. 9B): Complete preservation of the epithelium
Integrity of tracheal epithelium (according to histological data) ([5]; Time after the action of LPS: 1 hour): 90%
Integrity of tracheal epithelium (according to histological data) ([5]; Time after the action of LPS: 3 hours): 80%
Integrity of tracheal epithelium (according to histological data) ([5]; Time after the action of LPS: 6 hours): 65%
effect on the number of live line L929 cells [6]: did not produce any effect
